Source: patent US9822148B2, “EGFR-binding peptide” (HOYA CORPORATION, priority 2012, dated 2017)
Where no end group is shown, it is not given here. The star is where a group is joined. FITC = O=C1OC2(c3ccc(O)cc3Oc3cc(O)ccc32)c2ccc(NC(=S)*)cc21; Ahx = NCCCCCC(=O)O

Columns and labels:
[1] = biological target: T1, rhEGFR (Homo sapiens, UniProt P00533); assay: Competition test between phage and synthetic peptide on solid phase rhEGFR; type: binding; conditions: for binding of the I-1010 phage to a rhEGFR (ratio of an input titer/output titer) on adding the peptide: peptide added at each concentration, up to 100 μM
T1 construct: purchased R&D Systems
Method: A rhEGFR that is a target protein was added to a 96-well microplate to be 1 μg/well, and stood still at 4° C. overnight to be thus formed into a solid phase. A protein solution was removed, 300 μl of a blocking buffer was added and the mixture was incubated at 37° C. for 1 hour to thus block the wells. After removal of the blocking buffer, the wells were washed three times with 200 μl of 0.5% TBST washing solution, and finally 100 μl of 0.5% TBST was added thereto. […] A reaction only of the I-1010 phage without adding both of the peptides was employed as a control. […] In the reaction, the mixture was gently shaken at room temperature for 1 hour. The reaction solution was removed and the wells were washed with 200 μl of 0.5% TBST ten times. 100 μl of 0.2 M glycine-HCl (pH 2.2) was then added to the wells and stirred by pipetting, thereafter gently shaking at room temperature for 10 minutes. The eluate was collected to a microtube from the wells and added with 15 μl of 1M Tris-HCl (pH 9.1) to be neutralized and a target binding phage solution was thus obtained. The binding ability of the collected phage was examined by a measurement of a titer.

[2] = test system: A-431 cells; assay: In vitro imaging with FITC labeled peptide, confocal microscope, A-431 cells; type: cell-based, human; conditions: 100 μM FITC labeled peptide, 37° C., 1 hour
Method: A-431 cells were inoculated in a glass bottom dish to be 20×10^4 cells/dish and MCF7 cells were inoculated in a glass bottom dish to be 75×10^4 cells/dish, and cultured at 37° C. in the condition of CO2 for 24 hours. After culturing each kind of the cells for a specified time, EGF was added to have a concentration of 100 ng/mL and the mixture was cultured for 6 days. Thereafter, the culture solution in the dish was removed and washed with 1000 μL of a growth medium at 37° C. ten times. An aminocaproic acid linker was connected to an N terminal of a peptide and the peptide in which FITC was labeled in the opposite side of the connected linker (Pep055-F, Pep032-F ([…] (peptide irrelevant to binding to EGFR): SEQ ID No. 54)) (purity 80.6%, HPLC grade, AnyGen, Korea) was prepared to be 100 μM in a growth medium, and 1 mL of the medium was added and incubated at 37° C. for 1 hour. A staining fluid was removed and washed with 1 mL of a growth medium at 37° C. three times and thereto was finally added 1 mL of the medium. For observation, fluorescent observation was carried out by irradiating an exciting light laser with a wavelength of 488 nm using a confocal microscope (Leica SP2).

[3] = I-1010 phage 1×10^10 PFU, FIG. 6

| Substance | stainability of A-431 cells [2] | binding of the I-1010 phage to a rhEGFR (ratio of an input titer/output titer) on adding the peptide [1, 3] | also measured |
| --- | --- | --- | --- |
| Pep057: synthetic peptide (SEQ ID No. 7) of the I-1015 phage displayed peptide (LHQSEWMYVDIH; I-1015) |  |  | binding of the I-1015 phage to EGFR on adding the peptide ([1]; FIG. 8): inhibit |
| YLPLWRLSESHM ({FITC-Ahx}-YLPLWRLSESHM) [Pep032-F, reference compound] | scarcely stained |  |  |
| Pep055-F: Pep055 with an aminocaproic acid linker at the N terminal, labeled with FITC ({FITC-Ahx}-WHLSDLWQNAWH) | Staining of the cytoplasm of the A-431 cells was observed |  |  |
| Pep055: synthetic peptide obtained by artificially synthesizing the I-1010 phage displayed peptide (SEQ ID No. 2) (WHLSDLWQNAWH; I-1010) |  | inhibited concentration-dependently | peptide concentration from which the ratio of an input titer/output titer of the I-1010 phage dropped [1, 3]: ≥ 1 µM |
| GAASRTYLHELI (Random peptide) [Pep018, reference compound] |  | maintained |  |
| Pep056: synthetic peptide (SEQ ID No. 4) of the I-1012 phage displayed peptide (FHDWLPEVSPPD; I-1012) |  |  | binding of the I-1012 phage to EGFR on adding the peptide ([1]; FIG. 7): inhibit |
